This passage reports Kd results from publication PMC5951399.

The assay addresses frataxin, mature form (FXN^81–210) (human) (UniProt Q16595). Nature of the assay: ITC. (In general: In ITC the heat of successive injections is recorded.)

Sequence of frataxin, mature form (FXN^81–210) (human) (Q16595 81-210): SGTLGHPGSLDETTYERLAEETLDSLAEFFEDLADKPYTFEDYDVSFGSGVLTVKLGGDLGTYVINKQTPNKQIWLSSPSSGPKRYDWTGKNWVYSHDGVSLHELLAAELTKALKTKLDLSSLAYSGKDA
Sequence of cysteine desulfurase complex [NFS1]2:[ISD11]2:[Acp]2 (P0A6A8 whole entry, looked up): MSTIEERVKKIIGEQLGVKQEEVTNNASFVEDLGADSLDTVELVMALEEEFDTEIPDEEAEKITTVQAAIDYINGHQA
Sequence of cysteine desulfurase complex [NFS1]2:[ISD11]2:[Acp]2 (Q9HD34 whole entry, looked up): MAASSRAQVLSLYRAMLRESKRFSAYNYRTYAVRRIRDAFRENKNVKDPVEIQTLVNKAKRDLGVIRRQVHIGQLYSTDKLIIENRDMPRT
Sequence of [NFS1]2:[ISD11]2:[Acp]2:[ISCU]2 complex (Q9H1K1 whole entry, looked up): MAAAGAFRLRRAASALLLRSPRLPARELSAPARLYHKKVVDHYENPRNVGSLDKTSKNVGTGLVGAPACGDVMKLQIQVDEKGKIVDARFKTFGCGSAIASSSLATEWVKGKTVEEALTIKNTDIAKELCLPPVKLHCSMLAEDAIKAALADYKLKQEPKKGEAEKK
Sequence of [NFS1]2:[ISD11]2:[Acp]2:[ISCU]2 complex (P0A6A8 whole entry, looked up): as the sequence (P0A6A8 whole entry, looked up) above
Sequence of [NFS1]2:[ISD11]2:[Acp]2:[ISCU]2 complex (Q9HD34 whole entry, looked up): as the sequence (Q9HD34 whole entry, looked up) above

The Kd is the constant that tells how readily two partners part at equilibrium. A high value points to weaker binding. On to “[NFS1]2:[ISD11]2:[Acp]2:[ISCU]2 complex (from UniProt Q9HD34 1-91; P0A6A8 1-78; Q9H1K1-1 35-167)”, for which the Kd came to 3 µM.

The substance “cysteine desulfurase complex [NFS1]2:[ISD11]2:[Acp]2 (from UniProt Q9HD34 1-91; P0A6A8 1-78)” gave a Kd of 26.2 µM.
